T1: PUF4 RNA-binding domain (Saccharomyces cerevisiae, UniProt P25339 537-888)
T1 sequence: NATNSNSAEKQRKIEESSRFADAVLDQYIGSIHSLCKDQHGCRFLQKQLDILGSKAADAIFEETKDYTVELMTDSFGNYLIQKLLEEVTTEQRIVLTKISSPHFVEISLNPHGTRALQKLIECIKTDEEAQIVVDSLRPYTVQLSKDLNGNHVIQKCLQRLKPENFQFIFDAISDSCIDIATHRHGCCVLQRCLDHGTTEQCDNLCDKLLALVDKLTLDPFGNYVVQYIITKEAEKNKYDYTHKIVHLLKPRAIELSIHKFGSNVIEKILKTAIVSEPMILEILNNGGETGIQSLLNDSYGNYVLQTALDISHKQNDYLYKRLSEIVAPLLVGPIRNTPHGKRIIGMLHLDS


Target: T1, PUF4 RNA-binding domain
Test: Mg; RNA-MaP; 20 mM Na-HEPES pH 7.4, 30 mM KOAc, 0.75 mM MgCl2, 0.1% Tween-20, 5% glycerol, 0.1 mg/mL BSA, 2 mM DTT; 25 C; 0.0125-409.6 nM protein
Settings: tags: N-His6-TEV cleaved; C-SNAP kept, Cy3B-labelled; label: tethered on chip by stalled RNA polymerase

| Binder | Kd [nM] |
| --- | --- |
| UCUCUUUGUAGCUUACUCUCUU (ssRNA) [Ic_S1_P5E.1_K5.1_C5.1_H5.1_A5.1_[T5G]_[T6C]_[A7T]_F5.1_[T9A]_[A10C]_T5.1] | 19.2 |
| UCUCUUUGUAAUUCACUCUCUU (ssRNA) [Ic_S1_P5E.1_K5.1_C5.1_H5.1_A5.1_[T5A]_[A7T]_F5.1_[T8C]_[T9A]_[A10C]_T5.1] | 734 |
| UCUCUUUGUACAUAGUUCUCUU (ssRNA) [Ic_S1_P5E.1_K5.1_C5.1_H5.1_A5.1_[T5C]_[T6A]_[A7T]_F5.1_[T8A]_[T9G]_[A10T]_T5.1] | 4.18 |
| UCUCUUUGUAUUUUCUUCUCUU (ssRNA) [Ic_S1_P5E.1_K5.1_C5.1_H5.1_A5.1_[A7T]_F5.1_[T9C]_[A10T]_T5.1] | 34.8 |
| UCUCUUUUUGUAUAUCUCUU (ssRNA) [Ib_S1_P3E.1_K3.1_C3.1_H3.1_[G2T]_[A4G]_A3.1_F3.1_T3.1] | 25.1 |
| UCUCUUUGUAUCCCGCUCUCUU (ssRNA) [Ic_S1_P5E.1_K5.1_C5.1_H5.1_A5.1_[T6C]_[A7C]_F5.1_[T8C]_[T9G]_[A10C]_T5.1] | 1690 |
| UCUCUUUGUAACCGGUUCUCUU (ssRNA) [Ic_S1_P5E.1_K5.1_C5.1_H5.1_A5.1_[T5A]_[T6C]_[A7C]_F5.1_[T8G]_[T9G]_[A10T]_T5.1] | > 2300 |
| UCUCUUUGUAUCGCCAUCUCUU (ssRNA) [Ic_S1_P5E.1_K5.1_C5.1_H5.1_A5.1_[T6C]_[A7G]_F5.1_[T8C]_[T9C]_T5.1] | 919 |
| UCUCUUUGUAUCUUAUUCUCUU (ssRNA) [Ic_S1_P5E.1_K5.1_C5.1_H5.1_A5.1_[T6C]_[A7T]_F5.1_[T9A]_[A10T]_T5.1] | 3.28 |
| UCUCUUUGUAGCUGCUUCUCUU (ssRNA) [Ic_S1_P5E.1_K5.1_C5.1_H5.1_A5.1_[T5G]_[T6C]_[A7T]_F5.1_[T8G]_[T9C]_[A10T]_T5.1] | 2150 |
| UCUCUUUGUAUACCCGUCUCUU (ssRNA) [Ic_S1_P5E.1_K5.1_C5.1_H5.1_A5.1_[T6A]_[A7C]_F5.1_[T8C]_[T9C]_[A10G]_T5.1] | 675 |
| UCUCUUUGUAUCCCUAUCUCUU (ssRNA) [Ic_S1_P5E.1_K5.1_C5.1_H5.1_A5.1_[T6C]_[A7C]_F5.1_[T8C]_T5.1] | 13.3 |
| UCUCUUUGUACAAUCUUCUCUU (ssRNA) [Ic_S1_P5E.1_K5.1_C5.1_H5.1_A5.1_[T5C]_[T6A]_F5.1_[T9C]_[A10T]_T5.1] | 25.9 |
| UCUCUUUGUAUUCGUUUCUCUU (ssRNA) [Ic_S1_P5E.1_K5.1_C5.1_H5.1_A5.1_[A7C]_F5.1_[T8G]_[A10T]_T5.1] | 378 |
| UCUCUUUGUAUCGAUCUCUCUU (ssRNA) [Ic_S1_P5E.1_K5.1_C5.1_H5.1_A5.1_[T6C]_[A7G]_F5.1_[T8A]_[A10C]_T5.1] | 1870 |
| UCUCUUUGUACCCCUCUCUCUU (ssRNA) [Ic_S1_P5E.1_K5.1_C5.1_H5.1_A5.1_[T5C]_[T6C]_[A7C]_F5.1_[T8C]_[A10C]_T5.1] | 1240 |

| Binder | Kd [nM] |
| --- | --- |
| UCUCUUUGUAUCAUGCUCUCUU (ssRNA) [Ic_S1_P5E.1_K5.1_C5.1_H5.1_A5.1_[T6C]_F5.1_[T9G]_[A10C]_T5.1] | 11.3 |
| UCUCUUUGUAUGCCAUUCUCUU (ssRNA) [Ic_S1_P5E.1_K5.1_C5.1_H5.1_A5.1_[T6G]_[A7C]_F5.1_[T8C]_[T9A]_[A10T]_T5.1] | 100 |
| UCUCUUUGUACCGUCCUCUCUU (ssRNA) [Ic_S1_P5E.1_K5.1_C5.1_H5.1_A5.1_[T5C]_[T6C]_[A7G]_F5.1_[T9C]_[A10C]_T5.1] | 1540 |
| UCUCUUUGUAUGACCCUCUCUU (ssRNA) [Ic_S1_P5E.1_K5.1_C5.1_H5.1_A5.1_[T6G]_F5.1_[T8C]_[T9C]_[A10C]_T5.1] | 2180 |
| UCUCUUUGUAGCUUGAUCUCUU (ssRNA) [Ic_S1_P5E.1_K5.1_C5.1_H5.1_A5.1_[T5G]_[T6C]_[A7T]_F5.1_[T9G]_T5.1] | 651 |
| UCUCUUUGUACGAAUGUCUCUU (ssRNA) [Ic_S1_P5E.1_K5.1_C5.1_H5.1_A5.1_[T5C]_[T6G]_F5.1_[T8A]_[A10G]_T5.1] | 819 |
| UCUCUUUGUAACACCAUCUCUU (ssRNA) [Ic_S1_P5E.1_K5.1_C5.1_H5.1_A5.1_[T5A]_[T6C]_F5.1_[T8C]_[T9C]_T5.1] | 111 |
| UCUCUUUGUACUUACGUCUCUU (ssRNA) [Ic_S1_P5E.1_K5.1_C5.1_H5.1_A5.1_[T5C]_[A7T]_F5.1_[T8A]_[T9C]_[A10G]_T5.1] | 504 |
| UCUCUUUGUAAUCCGCUCUCUU (ssRNA) [Ic_S1_P5E.1_K5.1_C5.1_H5.1_A5.1_[T5A]_[A7C]_F5.1_[T8C]_[T9G]_[A10C]_T5.1] | 1660 |
| UCUCUUUGUAAACCGCUCUCUU (ssRNA) [Ic_S1_P5E.1_K5.1_C5.1_H5.1_A5.1_[T5A]_[T6A]_[A7C]_F5.1_[T8C]_[T9G]_[A10C]_T5.1] | 625 |
| UCUCUUUGUAUGUACCUCUCUU (ssRNA) [Ic_S1_P5E.1_K5.1_C5.1_H5.1_A5.1_[T6G]_[A7T]_F5.1_[T8A]_[T9C]_[A10C]_T5.1] | 93.8 |
| UCUCUUUGUACAAAACUCUCUU (ssRNA) [Ic_S1_P5E.1_K5.1_C5.1_H5.1_A5.1_[T5C]_[T6A]_F5.1_[T8A]_[T9A]_[A10C]_T5.1] | 45.2 |
| UCUCUUUGUAGCCCAAUCUCUU (ssRNA) [Ic_S1_P5E.1_K5.1_C5.1_H5.1_A5.1_[T5G]_[T6C]_[A7C]_F5.1_[T8C]_[T9A]_T5.1] | > 2300 |
| UCUCUUUGUACUCUACUCUCUU (ssRNA) [Ic_S1_P5E.1_K5.1_C5.1_H5.1_A5.1_[T5C]_[A7C]_F5.1_[T9A]_[A10C]_T5.1] | 4.81 |
| UCUCUUUGUAUGUAAGUCUCUU (ssRNA) [Ic_S1_P5E.1_K5.1_C5.1_H5.1_A5.1_[T6G]_[A7T]_F5.1_[T8A]_[T9A]_[A10G]_T5.1] | 446 |
| UCUCUUUGUACCAGCGUCUCUU (ssRNA) [Ic_S1_P5E.1_K5.1_C5.1_H5.1_A5.1_[T5C]_[T6C]_F5.1_[T8G]_[T9C]_[A10G]_T5.1] | 1180 |
